The values that follow come from patent US20210261685A1 (Alector, published 2021).

Test in all cases: SPR, Carterra LSA, antibody immobilised
On the technique in general: In SPR one partner is held on a chip, and binding of the other changes the refractive index at the surface.

For experiment [1], the target named is T1, human MerTK extracellular domain (ECD), recombinant (human, UniProt Q12866 21-505).
T1 construct: also called huMerTK; not shown: polyHis tag or TEVS/Thrombin/murine IgG2a Fc tag
T1 sequence: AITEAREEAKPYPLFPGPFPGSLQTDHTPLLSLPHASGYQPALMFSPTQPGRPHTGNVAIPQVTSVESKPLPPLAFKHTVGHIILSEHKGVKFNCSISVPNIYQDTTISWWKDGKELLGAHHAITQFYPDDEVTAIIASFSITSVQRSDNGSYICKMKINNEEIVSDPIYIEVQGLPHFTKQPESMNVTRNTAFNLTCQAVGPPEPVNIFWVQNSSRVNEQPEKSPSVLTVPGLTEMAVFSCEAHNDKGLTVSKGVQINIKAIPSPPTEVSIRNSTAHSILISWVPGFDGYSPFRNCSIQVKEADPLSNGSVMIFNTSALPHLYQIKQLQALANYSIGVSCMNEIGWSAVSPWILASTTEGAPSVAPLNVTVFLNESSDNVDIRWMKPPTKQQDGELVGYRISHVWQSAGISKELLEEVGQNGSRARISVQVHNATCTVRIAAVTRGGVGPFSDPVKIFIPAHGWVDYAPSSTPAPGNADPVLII
How it is done:
(§1) Binding kinetics of human anti-MerTK IgG1 LALAPS antibodies of the present disclosure to human, cyno, and murine MerTK were evaluated using a Carterra LSA instrument (Carterra, Salt Lake City, Utah). Briefly, anti-MerTK antibodies were prepared by diluting to 10 μg/ml in 10 mM Acetate, pH 4.25 (Carterra), at 300 μl/well. A HC200M sensor chip (Carterra) was activated using the single channel flow cell with a 7-minute injection of a 1:1:1 mixture of 100 mM MES pH 5.5, 100 mM sulfo-NHS, 400 mM EDC (all reconstituted in MES pH 5.5; 100 μl of each mixed in vial immediately before running assay). After switching to the multi-channel array flow cell, the antibodies were injected over the activated chip in a 96-spot array for 15 minutes. The remaining unconjugated active groups on the chip were then blocked by injecting 1M Ethanolamine pH 8.5 (Carterra) for 7 minutes using the single channel flow cell.
(§2) After priming with running buffer (HBS-TE, Carterra) with 0.5 mg/ml BSA (Sigma), the immobilized anti-MerTK antibodies were tested for their ability to bind to several forms of recombinant MerTK extracellular domain, including human, cynomolgus, and mouse orthologs as described above. Estimates of affinity were generated by injecting each analyte over the entire antibody array using the single channel flow cell. MerTK analytes were diluted to 33.3, 100, and 300 nM in running buffer, and injected in serial from lowest to highest concentration without regeneration. Two buffer blanks were run between each series (one species per series). Data were processed and analyzed using NextGenKIT high-throughput kinetics analysis software (Carterra).
(§3) The equilibrium dissociation constants (KD) were then calculated from the fitted association and dissociation rate constants (k-on and k-off) for anti-MerTK antibodies of the present disclosure. Binding kinetic analysis was also performed on anti-MerTK antibodies H1 (BioLegend, Clone ID: 590H11G1E3), H2 (R&D systems, Clone ID: 125518), M6 (WO2016/106221), and CDX AB2000-A7 hIgG1 (WO2019/084307).

In experiment [2] the target is T2, cyno MerTK extracellular domain (ECD), recombinant (cynomolgus monkey, UniProt Q12866 21-505 (human entry)).
T2 construct: also called cynomolgus MerTK; not shown: polyHis tag or TEVS/Thrombin/murine IgG2a Fc tag
T2 chain: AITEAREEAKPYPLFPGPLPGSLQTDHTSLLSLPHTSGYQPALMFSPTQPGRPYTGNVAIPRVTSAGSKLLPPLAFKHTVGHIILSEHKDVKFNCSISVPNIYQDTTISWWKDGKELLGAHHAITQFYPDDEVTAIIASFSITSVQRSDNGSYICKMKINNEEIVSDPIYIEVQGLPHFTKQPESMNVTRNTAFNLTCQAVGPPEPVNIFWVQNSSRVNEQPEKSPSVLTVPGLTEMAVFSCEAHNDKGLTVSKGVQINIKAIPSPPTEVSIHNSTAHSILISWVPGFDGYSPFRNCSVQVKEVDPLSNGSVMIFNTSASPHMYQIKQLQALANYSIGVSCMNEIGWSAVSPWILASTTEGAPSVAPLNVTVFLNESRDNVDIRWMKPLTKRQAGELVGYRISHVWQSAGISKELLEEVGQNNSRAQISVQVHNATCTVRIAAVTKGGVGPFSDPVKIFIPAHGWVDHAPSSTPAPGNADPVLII
How it is done: as §1, §2, §3

Experiment [3] addresses T3, murine MerTK extracellular domain (ECD), recombinant (mouse, UniProt Q60805 19-497).
T3 construct: also called moMerTK; mouse MerTK; not shown: polyHis tag or TEVS/Thrombin/murine IgG2a Fc tag
T3 sequence: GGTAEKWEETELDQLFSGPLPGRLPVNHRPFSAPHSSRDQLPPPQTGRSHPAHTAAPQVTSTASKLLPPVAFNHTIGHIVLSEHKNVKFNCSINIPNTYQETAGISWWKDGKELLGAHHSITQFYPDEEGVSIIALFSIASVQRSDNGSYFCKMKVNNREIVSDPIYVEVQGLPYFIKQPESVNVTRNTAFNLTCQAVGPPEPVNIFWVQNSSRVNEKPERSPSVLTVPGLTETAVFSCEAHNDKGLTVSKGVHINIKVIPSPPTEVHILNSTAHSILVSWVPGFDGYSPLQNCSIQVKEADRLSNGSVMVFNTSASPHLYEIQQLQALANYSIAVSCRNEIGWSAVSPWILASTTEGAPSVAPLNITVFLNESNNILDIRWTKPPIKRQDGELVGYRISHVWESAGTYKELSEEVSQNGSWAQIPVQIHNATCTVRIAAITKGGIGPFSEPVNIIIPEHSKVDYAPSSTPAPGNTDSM
How it is done:
as §1, §2, §3

B1: MTK-33 (antibody, human IgG1, V domains shown)
VH: QVQLQQPGPELVRPGTSVKLSCKASGYTFTSYWMHWIKQRPGQGLEWIGVIDPSDNYINYNQKFKGKATLTVDTSSSTAYLQLSSLTSEDSAVYYCAREAGTRGYFDYWGQGTTLTVSS
VL: SIVMTQTPKFLLVSAGDRVIITCKASQSVSNTVAWYQQKPGQSPKLLIYYASNRYTGVPDRFTGSGYGTDFTFTISTVQAEDLAVYFCQQDYRSPFTFGSGTQLEMK
By Kd is commonly meant the concentration at which binding is half-saturated. For B1, the Kd in experiment [1] is 6.5 nM; in experiment [2] it was 6.6 nM; in experiment [3], 75 nM.

B2: MTK-20 (antibody, human IgG1, V domains shown)
VH: QIQLVQSGPELKKPGETVKISCKASGYTFTNYGMTWVKQAPGKGLKWMGWINTYTGEPTYADDFKGRFALSLETSASTAYLQINNLKNEDTATYFCARGGGRLGLRPLDYWGQGTTLTVSS
VL: DIQMTQTTSSLSASLGDRVTISCRASQDINNYLNWYQQKPDGTVKLLIYYTSRLHSGVPSRFSGSGSGTDYSLTISNLEQEDIATYFCQQGNTLPWTFGGGTKLEIK
Regarding B2, the Kd came to 9.3 nM in experiment [1] and 9.2 nM in experiment [2]. Also, the binding result in experiment [3] was “no binding (tested: 300 nM)”.

B3: MTK-21 (antibody, human IgG1, V domains shown)
VH: QIQLVQSGPELKKPGETVKISCKASGYTFTNFGMTWVRQAPGMDLKWMGWINTYTGEPKYADDFKGRFALSLETSASTAYLQITNFKNEDTATYFCARGGGRLGLRPLDYWGQGTTLTVSS
VL: DIQMTQTTSSLSASLGDRVTISCRASQDINNYLNWYQQKPDGTVKLLIYYTSSLHSGVPSRFSGSGSGTDYSLTITNLEQEDIATYFCQQGNTLPWTFGGGTRLEIK
As for B3, the Kd in experiment [1] was 40 nM; in experiment [2], 43 nM. Besides, in experiment [3], the binding result was “no binding (tested: 300 nM)”.

B4: MTK-18 (antibody, human IgG1, V domains shown)
VH: QIQLVQSGPELKKPGETVKISCKASGYTFTHYGMTWVKQAPGKGLKWMGWINTYTGEPTYADDFKGRFAFSLETSASTAYLQINNLKNEDTATYFCARGGGQLGLRPLDYWGQGTTLTVSS
VL: DIQMTQTTSSLSASLGDRVTFSCRASQAISNYLNWYQQKPDGTVKLLIYYTSRLHSGVPSRFSGSGSGTDYSLTISNLEQEDIATYFCQQGNTLPWTFGGGTKLEIK
Turning to B4, the Kd in experiment [1] and in experiment [2] was 18 nM throughout. Also, the binding result in experiment [3] is “no binding (tested: 300 nM)”.

B5: MTK-01 (antibody, human IgG1, V domains shown)
VH: QIQLVQSGPELKKPGETVKISCKASGYTFTNYGMNWVKQAPGKGLKCMGWINTYTGEPTYADDFKGRFAFSLETSATTAYLQINNLKNEDTATYFCARRDRYTWFAYWGQGTLVTVSA
VL: QIVLSQSPAILSASPGEKVTMTCRASSSVSYMHWYQQKPGSSPKPWIYATSNLASGVPARFSGSGSGTSYSLTISRVEAEDAATYYCQQWSSNPPTFGGGTKLEIK
Consider B5, for which the Kd in experiment [2] is 99 nM. Moreover, in experiment [3], the binding result is reported as “no binding (tested: 300 nM)”.

B6: MTK-04 (antibody, human IgG1, V domains shown)
VH: QIQLVQSGPELKKPGETVKISCKASGYTFTNYGMNWVKQAPGKGLKCMGWINTYTGEPTYADDFKGRFAFSLETSASTAYLQINNLKNEDMATYFCAKYDNYAWFAYWGQGTLVTVSA
VL: QIVLSQSPAFLSASPGEKVTMTCRASSSVSYMHWYLQKPGSSPKPWIYATSNLASGVPVRFSGSGSGTSYSLTISRVEAEDAATYYCQQWSSNPRTFGGGTKLEIR
As to B6, the figures for the Kd in experiment [1] and in experiment [2] were 33 nM and 44 nM, respectively. Moreover, in experiment [3], the binding result is reported as “no binding (tested: 300 nM)”.

B7: MTK-17 (antibody, human IgG1, V domains shown)
VH: QIQLVQSGPELKKPGETVKISCKASGYTFTNFGMNWVKQAPGKGLKWMGWINTYTGEPTYADDFKGRFAFSLETSASTAYLQINNLKNEDTATYFCSRGAVLRAGAMDCWGQGTSVTVSS
VL: DIQMTQSSSYLSVSLGGRVTITCKASDHINNWLAWYQQKPGNAPRLLISGATSLETGVPSRFSGSGSGKDYTLSITSLQTEDVATYYCQQYWSTPRTFGGGTKLEIK
In the case of B7, the results for the equilibrium dissociation constant (Kd) in experiment [1] and in experiment [2] were 25 nM and 24 nM, respectively. Moreover, in experiment [3], the binding result was “no binding (tested: 300 nM)”.

B8: MTK-19 (antibody, human IgG1, V domains shown)
VH: EVQLQQSGPELVKPGASVKISCKTSGYTFTEYTMHWVKQSHGKSLEWLGGFNPNNVITSYNQRFQGRATLTVDKSSSTAYMELRSLTSDDSAVYYCTRGDLLWSLLLPGNYFDYWGQGTTLTVSS
VL: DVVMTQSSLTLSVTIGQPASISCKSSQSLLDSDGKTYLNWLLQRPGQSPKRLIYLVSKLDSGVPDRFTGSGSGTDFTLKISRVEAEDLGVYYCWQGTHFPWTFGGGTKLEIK
As to B8, the dissociation constant (Kd) worked out at 2.4 nM in experiment [1], 12 nM in experiment [2] and 130 nM in experiment [3].

B9: MTK-05 (antibody, human IgG1, V domains shown)
VH: QVQLQQSGAELVQPGTSVRLSCKTSGYTFTSYWIQWVKQRPGQGLGWIGEIFPGTGTTYYNEKFKGKATLTIDTSSSTAYMQLSSLTSEDSAVYFCARDGAYFDVWGAGTTVTVSS
VL: DIQMTQSPASLSASVGETVTFTCRASENIFSYLAWYQQKQGKSPQLLVYNAKTLAEGVPSRFSGSGSGTHFSLKINSLQPEDFGSYYCLHHYGTPLTFGAGTKLELK
Regarding B9, the equilibrium dissociation constant (Kd) in experiment [1] was 6.7 nM. The binding result in experiment [2] and in experiment [3] was “no binding (tested: 300 nM)” each time.

B10: MTK-03 (antibody, human IgG1, V domains shown)
VH: DVQLQESGPGLVKPSQSLSLTCSVTGYSITSGYYWNWIRQFPGNTLEWMGYMSFDGDNKFNPSLKNRISITRDTSKNQFFLRLNSVTTEDTATYYCARGGYNYGSTEANWGQGTLVTVSA
VL: QIVLTQSPAIMSAFPGEKVTITCSASSSVNYMHWFQQKPGTSPKLWIYSTSNLASGVPARFSGSGSGTSYSLTISRMEAEDAATYYCQQRSSYPFTFGSGTKLEIK
In the case of B10, the values for the Kd in experiment [1] and in experiment [2] were 54 nM and 55 nM, respectively. For the same molecule, the binding result in experiment [3] was “no binding (tested: 300 nM)”.

B11: MTK-07 (antibody, human IgG1, V domains shown)
VH: DVQLQESGPGLVKPSQSLSLTCSVTGYSITSGYYWNWIRQFPGNTLEWMGYMSFDGDNKFNPSLKNRISITRDTSKNQFFLRLNSVTTEDTATYYCARGGYNYGSTEANWGQGTLVTVST
VL: QIVLTQSPAIMSAFPGEKVTITCSASSSVTYMHWFQQKPGTSPKLWIFSTSNLASGVPARFSGSGSGTSYSLTISRMEAEDAATYYCQQRSSYPFTFGSGTKLEIK
Take B11: the Kd in experiment [1] was determined as 43 nM; in experiment [2], 53 nM. The binding result in experiment [3] is “no binding (tested: 300 nM)”.
